Experimental data: patent US20220403023A1

Experiments:
[1] = target: cynomolgus monkey CD47 on engineered CHO-K1 cells (cynomolgus monkey); assay: FACS on CHO-K1 cells expressing cynomolgus CD47 (CHOK1-cynoCD47), goat anti-human IgG-Fc PE; blank (Neg) 47.6
[2] = target: human CD47 on engineered CHO-K1 cells (human) (UniProt Q08722); assay: FACS on CHO-K1 cells expressing human CD47 (CHOK1-huCD47), goat anti-human IgG-Fc PE
[3] = target: human CD47 ECD protein (human) (UniProt Q08722); assay: ELISA on plate-coated human CD47 ECD (1 µg/mL), goat anti-human IgG-Fc-HRP, OD450
[4] = target: cynomolgus monkey CD47 on engineered CHO-K1 cells (cynomolgus monkey); assay: FACS on CHO-K1 cells expressing cynomolgus CD47 (CHOK1-cynoCD47), goat anti-human IgG-Fc PE
[5] = target: human CD47 ECD protein (human) (UniProt Q08722); assay: ELISA on plate-coated human CD47 ECD (1 µg/mL), goat anti-human IgG-Fc-HRP, OD450; blank (Neg) 0.102
[6] = target: human CD47 ECD protein (human) (UniProt Q08722); assay: competition ELISA: plate-coated human CD47 ECD (1 µg/mL), antibody titrated together with human SIRPα-His (1 µg/mL), bound SIRPα detected with anti-His-HRP
[7] = target: human CD47 on engineered CHO-K1 cells (human) (UniProt Q08722); assay: FACS on CHO-K1 cells expressing human CD47 (CHOK1-huCD47), goat anti-human IgG-Fc PE; blank (Neg) 34.8
[8] = target: human CD47 ECD protein (human) (UniProt Q08722); assay: competition ELISA against human SIRPα-His (1 µg/mL) on plate-coated human CD47 ECD; ligand only 1.438
[9] = target: CD47 on human red blood cells (human) (UniProt Q08722); assay: FACS on human red blood cells, goat anti-human IgG-Fc PE; blank (Neg) 232
[10] = target: human CD47 on engineered CHO-K1 cells (human) (UniProt Q08722); assay: competition FACS against human SIRPα-His (1 µg/mL) on CHOK1-huCD47 cells; ligand only 1086
[11] = target: human CD47 on engineered CHO-K1 cells (human) (UniProt Q08722); assay: competition FACS: CHO-K1 cells expressing human CD47, antibody titrated together with human SIRPα-His (1 µg/mL), bound SIRPα detected with anti-His-biotin and streptavidin-PE
[12] = target: CD47 on human red blood cells (human) (UniProt Q08722); assay: FACS on human red blood cells, goat anti-human IgG-Fc PE

Sequence of cynomolgus monkey CD47 on engineered CHO-K1 cells (cynomolgus monkey) (chain, as listed by the source, change not shown): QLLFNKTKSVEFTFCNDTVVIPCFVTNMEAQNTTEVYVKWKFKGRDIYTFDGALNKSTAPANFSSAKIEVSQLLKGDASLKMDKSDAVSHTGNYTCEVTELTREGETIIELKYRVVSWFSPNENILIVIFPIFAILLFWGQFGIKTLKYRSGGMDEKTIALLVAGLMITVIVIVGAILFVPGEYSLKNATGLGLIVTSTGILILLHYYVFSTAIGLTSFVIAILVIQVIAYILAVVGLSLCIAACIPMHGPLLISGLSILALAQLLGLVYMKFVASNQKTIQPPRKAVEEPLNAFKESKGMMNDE

Row | Max MFI [1] | EC50 [2] | EC50 [3] | EC50 [4] | Max OD [5] | IC50 [6] | Max MFI [7] | Max Inhibit% [8] | Min OD [8] | Max MFI [9] | Max Inhibit% [10] | Min MFI [10] | IC50 [11] | EC50 [12] | Binder
1 | 34200 MFI | 0.43 nM | 0.019 nM | 0.34 nM | 1.92 OD450 | 0.97 nM | 50000 MFI | 91.7% | 0.12 OD450 | 42800 MFI | 71.3% | 312 MFI | 0.51 nM | 0.69 nM | W345-BMK1.uIgG4PE.K (antibody, from another filing, V domains shown) VH: QMQLVQSGAEVKKTGSSVKVSCKASGFNIKDYYLHWVRQAPGQALEWMGWIDPDQGDTEYAQKFQDRVTITRDRSMSTAYMELSSLRSEDTAMYYCNAAYGSSSYPMDYWGQGTTVTV VL: NIQMTQSPSAMSASVGDRVTITCKASQDIHRYLSWFQQKPGKVPKHLIYRANRLVSGVPSRFSGSGSGTEFTLTISSLQPEDFATYYCLQYDEFPYTFGGGTKVEIK
2 | 30600 MFI | 1.22 nM | 0.038 nM | 38.9 nM | 1.82 OD450 | 2.84 nM | 55400 MFI | 90.5% | 0.137 OD450 | 37600 MFI | 67.4% | 354 MFI | 1.92 nM | 4.82 nM | W345-BMK4.uIgG4.SPK (antibody, from another filing, V domains shown) VH: QVQLQESGPGLVKPSGTLSLTCAVSGVSIRSINWWNWVRQPPGKGLEWIGEIYHSGSTNYNPSLKSRVTISVDKSKNQFSLKLNSVTAADTAVYYCARDGGIAVTDYYYYGLDVWGQGTTVTVSS VL: EIVLTQSPATLSLSPGERATLSCRASESVSSNLAWYQQKPGQAPRLLIYGAFNRATGIPARFSGSGSGTDFTLTISSLEPEDFAVYYCQQRSDWFTFGGGTKVEIK
